Experiments:
[1] = target: full MPER peptide (ELISA; gp41 residues 656-683 with lysine triplicates) (HIV-1); assay: ELISA, peptide coated at 2 ug/ml
[2] = target: Z13e1-specific peptide (gp41 residues 666-677) (HIV-1); assay: ELISA, peptide coated at 2 ug/ml
[3] = target: 4E10-specific MPER peptide (gp41 residues 671-683) (HIV-1); assay: ELISA, peptide coated at 2 ug/ml
[4] = target: T1, centromere B (UniProt P07199 2-599); assay: Luminex AtheNA Multi-Lyte ANA bead assay
T1 construct: Commercial bead antigen; also called CentrB
T1 sequence: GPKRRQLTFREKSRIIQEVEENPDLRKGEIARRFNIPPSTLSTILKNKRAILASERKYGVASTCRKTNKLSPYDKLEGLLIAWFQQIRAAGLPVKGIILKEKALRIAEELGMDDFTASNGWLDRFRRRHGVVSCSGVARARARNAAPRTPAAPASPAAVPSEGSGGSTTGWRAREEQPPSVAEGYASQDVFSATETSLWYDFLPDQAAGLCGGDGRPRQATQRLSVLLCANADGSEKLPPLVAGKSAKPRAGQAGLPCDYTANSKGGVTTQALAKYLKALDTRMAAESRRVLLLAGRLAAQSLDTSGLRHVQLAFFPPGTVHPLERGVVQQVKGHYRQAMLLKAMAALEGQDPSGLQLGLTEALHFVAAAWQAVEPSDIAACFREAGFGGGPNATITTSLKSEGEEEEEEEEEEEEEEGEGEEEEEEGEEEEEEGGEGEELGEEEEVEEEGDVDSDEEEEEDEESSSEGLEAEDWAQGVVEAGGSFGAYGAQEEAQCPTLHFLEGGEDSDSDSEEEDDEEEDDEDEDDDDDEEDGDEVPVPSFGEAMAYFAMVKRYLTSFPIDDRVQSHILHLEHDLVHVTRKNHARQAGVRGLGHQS

[5] = target: T2, Jo1 antigen (UniProt P12081 2-509); assay: Luminex AtheNA Multi-Lyte ANA bead assay
T2 construct: Commercial bead antigen
T2 sequence: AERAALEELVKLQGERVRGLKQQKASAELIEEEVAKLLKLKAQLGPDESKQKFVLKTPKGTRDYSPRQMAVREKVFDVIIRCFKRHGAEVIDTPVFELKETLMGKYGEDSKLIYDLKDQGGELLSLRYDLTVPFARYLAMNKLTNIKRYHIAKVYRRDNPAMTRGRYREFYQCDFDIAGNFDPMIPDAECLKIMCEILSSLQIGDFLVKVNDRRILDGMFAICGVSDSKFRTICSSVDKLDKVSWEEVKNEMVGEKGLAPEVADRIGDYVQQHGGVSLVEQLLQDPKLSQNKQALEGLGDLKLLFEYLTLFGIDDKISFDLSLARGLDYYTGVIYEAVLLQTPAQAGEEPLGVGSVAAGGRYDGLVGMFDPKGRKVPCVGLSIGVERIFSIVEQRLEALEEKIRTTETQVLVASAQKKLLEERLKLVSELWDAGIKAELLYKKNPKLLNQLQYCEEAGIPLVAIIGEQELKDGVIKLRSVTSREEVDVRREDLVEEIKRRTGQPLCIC

[6] = target: T3, Sjogren's syndrome antigen B (UniProt P05455 1-408); assay: Luminex AtheNA Multi-Lyte ANA bead assay
T3 construct: Commercial bead antigen; also called SSB; SS-B/La
T3 sequence: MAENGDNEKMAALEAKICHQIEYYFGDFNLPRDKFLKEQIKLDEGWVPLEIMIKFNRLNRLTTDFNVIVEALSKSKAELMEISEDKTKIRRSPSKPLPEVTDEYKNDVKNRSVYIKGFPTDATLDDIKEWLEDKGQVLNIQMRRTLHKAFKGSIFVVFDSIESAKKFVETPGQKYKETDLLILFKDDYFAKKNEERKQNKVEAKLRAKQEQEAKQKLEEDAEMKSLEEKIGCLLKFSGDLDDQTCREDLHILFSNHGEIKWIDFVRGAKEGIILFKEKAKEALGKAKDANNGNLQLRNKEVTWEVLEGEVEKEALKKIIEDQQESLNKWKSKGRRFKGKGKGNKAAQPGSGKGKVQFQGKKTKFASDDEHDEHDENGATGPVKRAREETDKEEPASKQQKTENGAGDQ

[7] = target: T4, scleroderma 70 antigen (UniProt P11387 2-765); assay: Luminex AtheNA Multi-Lyte ANA bead assay
T4 construct: Commercial bead antigen; also called Scl 70; Sc1 70
T4 sequence: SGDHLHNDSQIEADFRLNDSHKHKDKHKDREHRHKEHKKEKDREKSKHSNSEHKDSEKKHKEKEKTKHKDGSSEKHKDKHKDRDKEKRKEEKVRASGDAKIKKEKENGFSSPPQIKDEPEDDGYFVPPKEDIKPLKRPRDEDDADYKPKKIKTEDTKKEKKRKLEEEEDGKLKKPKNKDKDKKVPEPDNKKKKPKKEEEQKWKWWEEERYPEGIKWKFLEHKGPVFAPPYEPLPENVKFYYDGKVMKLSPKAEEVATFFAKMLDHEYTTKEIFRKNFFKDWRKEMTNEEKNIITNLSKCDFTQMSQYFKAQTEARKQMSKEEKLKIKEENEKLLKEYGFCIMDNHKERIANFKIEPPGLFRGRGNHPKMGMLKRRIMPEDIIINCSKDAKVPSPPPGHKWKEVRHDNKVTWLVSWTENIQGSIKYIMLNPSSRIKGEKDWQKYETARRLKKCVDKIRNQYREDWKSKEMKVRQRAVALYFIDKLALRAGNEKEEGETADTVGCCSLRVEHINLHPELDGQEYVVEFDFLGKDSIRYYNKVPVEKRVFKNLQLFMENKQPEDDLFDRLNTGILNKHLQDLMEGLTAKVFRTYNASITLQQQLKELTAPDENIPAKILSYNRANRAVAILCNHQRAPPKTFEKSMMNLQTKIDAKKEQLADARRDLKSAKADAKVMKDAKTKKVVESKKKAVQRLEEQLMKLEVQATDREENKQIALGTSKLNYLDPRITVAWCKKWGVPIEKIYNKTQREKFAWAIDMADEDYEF

B1: 10E8 monoclonal antibody (full-length IgG) (antibody, V domains shown)
VH: EVQLVESGGGLVKPGGSLRLSCSASGFDFDNAWMTWVRQPPGKGLEWVGRITGPGEGWSVDYAAPVEGRFTISRLNSINFLYLEMNNLRMEDSGLYFCARTGKYYDFWSGYPPGEEYFQDWGRGTLVTVSS
VL: SYELTQETGVSVALGRTVTITCRGDSLRSHYASWYQKKPGQAPILLFYGKNNRPSGVPDRFSGSASGNRASLTISGAQAEDDAEYYCSSRDKSGSRLSVFGGGTKLTVL
notes: also called mAb 10E8; wild-type 10E8
[1]
  binding result: binds
[2]
  binding result: no binding
[3]
  binding result: binds
[4]
  binding result: no binding (tested: 50 ug/ml (highest concentration assayed))
[5]
  binding result: no binding (tested: 50 ug/ml (highest concentration assayed))
[6]
  binding result: no binding (tested: 50 ug/ml (highest concentration assayed))
[7]
  binding result: no binding (tested: 50 ug/ml (highest concentration assayed))

Source: patent US20140348785A1 (US Dept. of Health and Human Services, published 2014)
